Experimental findings from patent publication US20090312403A1 are described below.

Assay [1] addresses mouse B6 class I antigens (H-2^b: D^b or K^b) on RMA-S cells (mouse). The assay is described as follows: RMA-S cells incubated with peptide (25 ug/ml), flow cytometry with FITC anti-D^b or anti-K^b.
The target is the same in assay [2]. In words: binding of 9mer peptide to mouse B6 (H-2^b) class I antigens, RMA-S cell assay.

Molecule GCNKRYFKL [WT1 peptide p329-337 (…)] registered a Binding Affinity to Mouse MHC Class I (% increase of D^b or K^b on RMA-S cells) in assay [1] of 1.2%.

In turn, ASSGQARMF [WT1 peptide P120-128 (…)] showed a Binding Affinity to Mouse MHC Class I in assay [2] of 1%.

As for YSSDNLYQM [WT1 peptide p221-229 (…)], in assay [1], the Binding Affinity to Mouse MHC Class I (% increase of D^b or K^b on RMA-S cells) turned out to be 0.8%.

Turning to QASSGQARM [WT1 peptide P119-127 (…)], in assay [2], the Binding Affinity to Mouse MHC Class I stood at 2%.

In assay [1], QMTSQLECM [WT1 peptide p228-236 (…)] came in with a Binding Affinity to Mouse MHC Class I (% increase of D^b or K^b on RMA-S cells) of 1.2%.

In assay [2], SQASSGQAR [WT1 peptide P118-126 (…)] gave a Binding Affinity to Mouse MHC Class I of 2%.

ALLPAVPSL [WT1 peptide human p10-18 (…)] registered a Binding Affinity to Mouse MHC Class I (% increase of D^b or K^b on RMA-S cells) in assay [1] of 2.2%.

Regarding FPNAPYLPS [WT1 peptide P128-136 (…)], the Binding Affinity to Mouse MHC Class I in assay [2] was found to be 1%.

Turning to QARMFPNAP [WT1 peptide P124-132 (…)], the Binding Affinity to Mouse MHC Class I in assay [2] was found to be 1%.

Consider MFPNAPYLP [WT1 peptide P127-135 (…)], for which, in assay [2], the Binding Affinity to Mouse MHC Class I was determined as 2%.

Regarding NAPYLPSCL [WT1 peptide P130-138 (…)], the Binding Affinity to Mouse MHC Class I in assay [2] turned out to be 79%.

With APYLPSCLE [WT1 peptide P131-139 (…)], the Binding Affinity to Mouse MHC Class I in assay [2] was determined as 1%.

As for NLYQMTSQL [WT1 peptide p225-233 (…)], the Binding Affinity to Mouse MHC Class I (% increase of D^b or K^b on RMA-S cells) in assay [1] was 5.8%.

As to PNAPYLPSC [WT1 peptide P129-137 (…)], the Binding Affinity to Mouse MHC Class I in assay [2] came to 1%.

In the case of NQMNLGATL [WT1 peptide p239-247 (…)], the Binding Affinity to Mouse MHC Class I (% increase of D^b or K^b on RMA-S cells) in assay [1] came to 1%.

The molecule SCLESQPAI [WT1 peptide human p136-144 (…)] came in with a Binding Affinity to Mouse MHC Class I (% increase of D^b or K^b on RMA-S cells) in assay [1] of 52%.

Consider SSGQARMFP [WT1 peptide P121-129 (…)], for which the Binding Affinity to Mouse MHC Class I in assay [2] is 1%.

Consider CMTWNQMNL [WT1 peptide p235-243 (…)], for which the Binding Affinity to Mouse MHC Class I (% increase of D^b or K^b on RMA-S cells) in assay [1] is 33.6%.

On to ARMFPNAPY [WT1 peptide P125-133 (…)], for which, in assay [2], the Binding Affinity to Mouse MHC Class I is 1%.

Regarding PSQASSGQA [WT1 peptide P117-125 (…)], the Binding Affinity to Mouse MHC Class I in assay [2] was determined as 2%.
